This sample holds only a part of the variants without activity.
Key:
biotinyl-Met-oxazolone = test: self-aminoacylation, catalytic enhancement (BMO) (fold over background); higher = more active; k-Seq, kA / k0A0; sequences stand for … in GGGAAUGGAUCCACAUCUACGAAUUC…UUCACUGCAGACUUGACGAAGCUG
Procedure, shortened: (§1)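 Mutagenized RNA pools with a 21-nt variable region (0.43 μM) reacted with each biotinyl-aminoacyl-oxazolone at 2–1250 μM. Reactions ran in 50 μL HEPES/NaCl/KCl/MgCl2/CaCl2 buffer with 5% acetonitrile, pH 6.9–7.0, for 90 minutes at room temperature. Streptavidin-captured RNA was quantified by triplicate qPCR and Illumina sequencing, and per-sequence fraction reacted was fit to a pseudo-first-order model with 1000 bootstraps. Catalytic enhancement is median kA divided by the uncatalyzed rate, the low-activity peak of a bimodal Gaussian fit.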

biotinyl-Ile-oxazolone = test: self-aminoacylation, catalytic enhancement (BIO) (fold over background); higher = more active; k-Seq, kA / k0A0; sequences stand for … in GGGAAUGGAUCCACAUCUACGAAUUC…UUCACUGCAGACUUGACGAAGCUG
Procedure, shortened: as §1

biotinyl-Phe-oxazolone = test: self-aminoacylation, catalytic enhancement (BFO) (fold over background); higher = more active; k-Seq, kA / k0A0; sequences stand for … in GGGAAUGGAUCCACAUCUACGAAUUC…UUCACUGCAGACUUGACGAAGCUG
Procedure, shortened: as §1

biotinyl-Trp-oxazolone = test: self-aminoacylation, catalytic enhancement (BWO) (fold over background); higher = more active; k-Seq, kA / k0A0; sequences stand for … in GGGAAUGGAUCCACAUCUACGAAUUC…UUCACUGCAGACUUGACGAAGCUG
Procedure, shortened: as §1

biotinyl-Val-oxazolone = test: self-aminoacylation, catalytic enhancement (BVO) (fold over background); higher = more active; k-Seq, kA / k0A0; sequences stand for … in GGGAAUGGAUCCACAUCUACGAAUUC…UUCACUGCAGACUUGACGAAGCUG
Procedure, shortened: as §1

biotinyl-Leu-oxazolone = test: self-aminoacylation, catalytic enhancement (BLO) (fold over background); higher = more active; k-Seq, kA / k0A0; sequences stand for … in GGGAAUGGAUCCACAUCUACGAAUUC…UUCACUGCAGACUUGACGAAGCUG
Procedure, shortened: as §1

| Sequence | self-aminoacylation (biotinyl-Met-oxazolone) | self-aminoacylation (biotinyl-Ile-oxazolone) | self-aminoacylation (biotinyl-Phe-oxazolone) | self-aminoacylation (biotinyl-Trp-oxazolone) | self-aminoacylation (biotinyl-Val-oxazolone) | self-aminoacylation (biotinyl-Leu-oxazolone) |
| --- | --- | --- | --- | --- | --- | --- |
| CCACAAUUGAAGCAAUCGGUC [Fam1B.1 aminoacylation ribozyme variant] | 0.746 | 0.913 | 0.687 | 1.16 | 0.869 | 0.716 |
| CCACACAACAAGCAAUCGGUC [Fam1B.1 aminoacylation ribozyme variant] | 0.781 | 0.894 | 1.15 | 0.693 | 0.899 | 0.863 |
| CCACACAUCAACCAAUCGGUC [Fam1B.1 aminoacylation ribozyme variant] | 0.622 | 0.785 | 1.2 | 1.26 | 0.745 | 0.487 |
| CCACACAUCAAGCAAUCAGUC [Fam1B.1 aminoacylation ribozyme variant] | 0.664 | 0.82 | 1.22 | 0.575 | 0.708 | 0.708 |
| CCACACAUCAAGCAAUCGUUC [Fam1B.1 aminoacylation ribozyme variant] | 0.617 | 0.807 | 0.673 | 0.543 | 0.783 | 0.722 |
| CCACACAUCAAGCAAUGGGUC [Fam1B.1 aminoacylation ribozyme variant] | 0.97 | 1.08 | 1.33 | 0.706 | 1.08 | 0.806 |
| CCACACAUCAAGGAAUCGGUC [Fam1B.1 aminoacylation ribozyme variant] | 0.804 | 1.04 | 0.77 | 0.926 | 0.884 | 1.02 |
| CCACACCUCAAGCAAUCAGUC [Fam1B.1 aminoacylation ribozyme variant] | 0.804 | 0.843 | 1.26 | 0.558 | 0.856 | 0.6 |
| CCACACCUCAAGCAAUCGAUC [Fam1B.1 aminoacylation ribozyme variant] | 0.442 | 0.643 | 0.758 | 0.298 | 0.76 | 0.553 |
| CCACACCUCAAGCAAUUGGUC [Fam1B.1 aminoacylation ribozyme variant] | 0.699 | 0.937 | 1.05 | 0.738 | 0.754 | 0.873 |
| CCACACCUCAAGCAGUCGGUC [Fam1B.1 aminoacylation ribozyme variant] | 1.02 | 1.34 | 0.725 | 1.02 | 1.6 | 1.47 |
| CCACACCUCAAGCCAUCGGUC [Fam1B.1 aminoacylation ribozyme variant] | 1.38 | 1.27 | 2.01 | 1.55 | 1.42 | 1.41 |
| CCACACCUUAAGCAAUCGGUC [Fam1B.1 aminoacylation ribozyme variant] | 1.15 | 1.16 | 0.93 | 0.714 | 1.19 | 1.03 |
| CCACACGUCAAACAAUCGGUC [Fam1B.1 aminoacylation ribozyme variant] | 1.2 | 1.21 | 1.2 | 1.83 | 1.34 | 1.45 |
| CCACACGUCAACCAAUCGGUC [Fam1B.1 aminoacylation ribozyme variant] | 1.07 | 1.09 | 1.24 | 1.32 | 1.47 | 1.17 |
| CCACACGUCAAGCAAUCGUUC [Fam1B.1 aminoacylation ribozyme variant] | 1.17 | 0.799 | 0.752 | 1.01 | 1.03 | 0.842 |
| CCACACGUCAAGCGAUCGGUC [Fam1B.1 aminoacylation ribozyme variant] | 1.14 | 1.21 | 1.06 | 1.61 | 2.3 | 1.11 |
| CCACACGUCAAUCAAUCGGUC [Fam1B.1 aminoacylation ribozyme variant] | 1.09 | 1.05 | 1.24 | 0.926 | 1.1 | 0.966 |
| CCACACGUCAGGCAAUCGGUC [Fam1B.1 aminoacylation ribozyme variant] | 1.33 | 1.38 | 3.26 | 1.93 | 2.52 | 1.81 |
| CCACACUACAAGCAACCGGUC [Fam1B.1 aminoacylation ribozyme variant] | 0.649 | 1.29 | 1.03 | 0.793 | 0.674 | 0.948 |
| CCACACUACAAGCAAUCGCUC [Fam1B.1 aminoacylation ribozyme variant] | 1.59 | 1.22 | 1.2 | 1.32 | 1.29 | 1.31 |
| CCACACUACAAGCAAUCGGUU [Fam1B.1 aminoacylation ribozyme variant] | 0.918 | 1.02 | 1.55 | 1.39 | 1.08 | 0.677 |
| CCACACUACAAGCAUUCGGUC [Fam1B.1 aminoacylation ribozyme variant] | 2.58 | 2.14 | 3.61 | 2.04 | 2.71 | 1.73 |
| CCACACUACAAUCAAUCGGUC [Fam1B.1 aminoacylation ribozyme variant] | 0.663 | 0.797 | 1.18 | 0.811 | 0.877 | 0.688 |
| CCACACUCCAAGCAAUCAGUC [Fam1B.1 aminoacylation ribozyme variant] | 0.699 | 0.781 | 1.54 | 0.672 | 0.911 | 0.73 |
| CCACACUCCAAGCACUCGGUC [Fam1B.1 aminoacylation ribozyme variant] | 1.32 | 1.35 | 0.642 | 0.831 | 1.24 | 0.768 |

Reference: the supplement of paper PMC9233669
